± gives the uncertainty stated by the source.

This series is described as follows: amyloid nucleation score (Sup35N fusion, yeast selection) (log enrichment); library NNK1; higher = more nucleation; inactive = no reads after selection. In short, it runs like this: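 Random libraries were run with three technical output replicates. In each, psi-negative yeast expressing Sup35N fused to peptides of 20 random codons were induced 24 hours with 100 μM copper sulfate and grown 7 days at 30°C on medium lacking adenine and uracil, and input and output plasmid inserts were Illumina-sequenced. The nucleation score is the DiMSum log enrichment of output over input reads, centred on the mode score of non-aggregating sequences, and sequences under 100 input reads were excluded.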
In the case of HYGAKCGGPRAWGRDTDR, the amyloid nucleation score came to 0.156 ± 0.69. Then HYSNVKTGGKSGKWEIRDLE, with -0.559 ± 0.35; and IADPNRFFTLLNLPMQCREA, with “inactive”.

In the case of IAGRRPALYRVWNSRCSLLN, the amyloid nucleation score was 0.014 ± 0.49. Then IARLHT, with “inactive”; and IASFVEERLSEIPYLATLGL, with -0.385 ± 0.46; and IASVWFRCFHRNRLVWSLRR, with 0.214 ± 0.44. Then IAVFWCFKMNWALMMRTKDM, with 0.13 ± 0.38; and IAVKQFSRPPVFYIYSSLEC, with 0.642 ± 0.62. Then IAYKPLTWSSWEGSISIIRV, with 0.149 ± 0.4; and IAYNDSYMVKYCVREVLMDE, with 4.29 ± 0.13. With ICFFGCQGGGPRLRQDRCRT, the amyloid nucleation score was -0.53 ± 0.63. Then ICITYL, with 2.56 ± 0.12; and ICSRTVKFYSSSF, with -2.03 ± 2.4; and ICTSSTKGRLCRSCPLASRL, with 0.205 ± 0.38. For ICVCKDVCGLYRCLLGTGGS, the amyloid nucleation score was determined as 1.13 ± 0.57. Then ICYIPADFVKPAMVNLYLAM, with 2.99 ± 0.11; and IDFKGTKKLLSDRAPVGDST, with 0.549 ± 1; and IDMGSGTNFSTCKCATLIMI, with “inactive”. Consider IDVFEITSKSFAARGAQFVH, for which the amyloid nucleation score is -1.97 ± 1.3. IEIKTIFVSFLFCECKFCGY had an amyloid nucleation score of 5.63 ± 0.057. For IESMVYITPCIEGIRWNWEK, the amyloid nucleation score was 0.122 ± 0.36. Then IETWCVKWFH, with -0.299 ± 0.32. Regarding IFATTIFLLGTRTKLMSG, the amyloid nucleation score amounted to 0.971 ± 0.65. Then IFFSCQVGYSAIARDARWTR, with 2.04 ± 0.14; and IFGTHFGTCFSGHAEEDTGE, with 0.724 ± 0.83.

For the substance IFLIMKNRTSILRPTGFLVS, the amyloid nucleation score is -0.402 ± 0.49. In the case of IFLNKRSTSAWFSMLLLFLS, the amyloid nucleation score turned out to be 1.4 ± 0.14. Then IFRMAPKQCPSLWVASPHWI, with 0.743 ± 0.55; and IFSFNMQDN, with -0.363 ± 1.2; and IFSLCSVLSSNIEECPS, with -0.257 ± 0.8. The substance IFVVMQTIFMWLDSWADQSL came in with an amyloid nucleation score of 0.391 ± 0.35.

With IFYIYLRGLVMIVRRSMVIR, the amyloid nucleation score entry is “inactive”. The figure for IFYSLQLVTARSTEVMGDTP is 1.1 ± 0.88; for IGACLRQSLVISYDVIFMLL it is “inactive”. IGACVMQVNLCQSSGVSSYL: the amyloid nucleation score came out at 5.72 ± 0.062. Turning to IGCKCDIFVCNCISVCYVGA, the amyloid nucleation score amounted to 4.3 ± 0.16.

For IGDKYGYCKYGRYADGQVIS, the amyloid nucleation score entry was “inactive”. As to IGDNVNGSLLEIW, the amyloid nucleation score is -0.528 ± 0.32.

Consider IGENCRWRMSSRCGFNGNDT, for which the amyloid nucleation score is -0.37 ± 0.43. With IGFHSMDFEQYFCYFSVKTK, the amyloid nucleation score is 0.616 ± 0.75.

The substance IGFML yielded an amyloid nucleation score of 1.69 ± 0.32. Then IGGFASLGYGYIRDVIRVTS, with 0.493 ± 0.45. Then IGGHRYGVDKY, with -0.194 ± 0.72; and IGKSCFIFVTG, with 0.56 ± 0.43; and IGLFWSFVKKIEVIICVGML, with 0.665 ± 0.9. Substance IGQLHFIEITNMREGHPFLA returned an amyloid nucleation score of 0.53 ± 0.63. The figure for IGYSGYY is -0.296 ± 0.41.

In the case of IHLIDLTRVSAG, the amyloid nucleation score turned out to be 0.627 ± 0.63.

In the case of IHNNRVGVYCILNNTQRVE, the amyloid nucleation score turned out to be 0.2 ± 0.61.

As to IIEIFVDIRYHFMY, the amyloid nucleation score came to 1.91 ± 0.38. The figure for IIIEVSQTDTV is -0.292 ± 0.79; for IINRNYI it is 1.1 ± 0.84; for IINVLC it is 3.73 ± 0.056. IIVGVVNTRDYLYCRNFVYI came in with an amyloid nucleation score of 2.79 ± 0.1. Then IKDTGYYLHMIEQPDTLNLW, with 0.651 ± 0.53; and IKTAFMVMNNGKDVMSRSWG, with 0.402 ± 0.4; and IKTNHKDNLWNNFNLYDKAH, with 0.233 ± 0.31.

On to IKWWKLCGVVRIGNNCLRYL, for which the amyloid nucleation score was determined as 0.64 ± 0.72.

In turn, IKWYAY yielded an amyloid nucleation score of 0.952 ± 0.68. ILCALMRFLVETLHLINFWK came in with an amyloid nucleation score of -0.278 ± 0.61.

ILEVCRHRVIIIRNYLSYCA came in with an amyloid nucleation score of 2.8 ± 0.24. Consider ILFFDVSSQGRTEDKVRNLG, for which the amyloid nucleation score is 0.088 ± 0.69. Then ILFRVVSRVGISRYGWKRVL, with -0.241 ± 0.83; and ILHWEKRDSTVKILSLSIHW, with 0.385 ± 0.46. The entry for ILIGRPQYIDRYMSSCVIIL is “inactive”; for ILKDVFIITVISSCSITSKL it is 2.37 ± 0.18; for ILLMSSGEDYSHTGAP it is -0.06 ± 0.76.

Regarding ILLRLGDVVRIGLVFVTSFG, the amyloid nucleation score is 0.421 ± 0.61. Turning to ILMLKH, the amyloid nucleation score is -0.484 ± 0.68. As for ILNGFTRYLR, the amyloid nucleation score is -0.12 ± 0.36. As for ILSDVDVCGYLRFMFWSMSD, the amyloid nucleation score came to 1.58 ± 0.49. As for ILSFMYYDTHAPLKFAVQVK, the amyloid nucleation score was found to be 0.296 ± 0.45. Consider ILSLNCFYRTWRLEMNKSYK, for which the amyloid nucleation score was 1.94 ± 0.52.

Take ILSLS: the amyloid nucleation score turned out to be 0.038 ± 0.18.

Regarding ILSWSNSGRMNHRPLVYERS, the amyloid nucleation score came out at 0.963 ± 0.43. ILTDTSMGTSAVHRARQTLK showed an amyloid nucleation score of 0.066 ± 0.48. The figure for ILTRVV is 0.37 ± 1.1; for ILVGTWSLGSRAVEGNNWDH it is -0.357 ± 0.49. For the substance ILVSQCRRLVYFVGSVCFST, the amyloid nucleation score was 0.622 ± 0.53.

As to ILWLFSGAWLYYSVLYCL, the amyloid nucleation score was -0.076 ± 0.51. Then ILWPGWDYTKKIVFSCLMVI, with -0.613 ± 0.29; and ILYVNNFIFLH, with 7.59 ± 0.056. Consider IMFTWWEYRLRSLEV, for which the amyloid nucleation score was -0.334 ± 0.48. Regarding IMLNLFHYGSSLQQFKTHH, the amyloid nucleation score is 7.325 ± 0.054.

Regarding IMVTDKLSTCAETYIDISW, the amyloid nucleation score is -0.164 ± 0.75. As to IMWLLLPRYDLFFRLMYTAS, the amyloid nucleation score came out at 0.617 ± 0.46. The figure for INETLYRTFSRL is -0.471 ± 0.56. The figure for INLTNIHFCHVNFVVGALKP is 5.98 ± 0.079. Substance INSQSTATN had an amyloid nucleation score of 0.593 ± 0.31. As to IPVWTYIVWAQESILQRGCW, the amyloid nucleation score was determined as 0.217 ± 0.46. The substance IQLYIYCNMWKVGGKEWRAW returned an amyloid nucleation score of 5.78 ± 0.087. IQNISLGVVGVMWNPHTCVV showed an amyloid nucleation score of -0.708 ± 0.66. For the substance IQSLVFRGKRVTHTKQSLTL, the amyloid nucleation score is 0.262 ± 0.36. Substance IQTCCHIQVELV showed an amyloid nucleation score of 3.79 ± 0.088. Then IRELRSDFSGSMVDERFLGE, with 0.489 ± 1.1; and IRFFKCLTCVSDCGN, with “inactive”.

IRGLLRFL: the amyloid nucleation score came out at 0.007 ± 0.35. The figure for IRIWSSREGFASIVWTCLMG is -0.32 ± 0.54. The figure for IRKFLFLFNALLSAPLLFHK is -0.2 ± 1.1. For the substance IRLTILLSKVDTDE, the amyloid nucleation score worked out at 0.885 ± 0.42. For the substance IRMGCNVHREEVSFTVLAVH, the amyloid nucleation score came out at 0.409 ± 0.66. Then IRMVFAMVSYSCDYRATAGT, with 2.65 ± 0.18; and IRQQFKCYGEFCATM, with -0.587 ± 1.2; and IRSLITMVGTGLGPLAR, with 0.876 ± 0.4. Then ISCKWYNHISSRLNFMWHAK, with 0.394 ± 0.88. Take ISFCDGRSCIDLIAVRCFRG: the amyloid nucleation score is -0.909 ± 0.26.

The substance ISFLFMCYLWQGNNS yielded an amyloid nucleation score of 6.24 ± 0.066. The substance ISGIECQYTNGRRWGPPS showed an amyloid nucleation score of -0.323 ± 0.81. As for ISGLNV, the amyloid nucleation score was -0.372 ± 0.51. With ISHKQITTDSSNTVRVYGGN, the amyloid nucleation score is -0.122 ± 1.6. As to ISICYRIEKRE, the amyloid nucleation score entry is “inactive”.

On to ISLGCNDSGLRIG, for which the amyloid nucleation score was -0.935 ± 0.84. ISLISYFFSFLWLYYYFFEF gave an amyloid nucleation score of 1.06 ± 0.28. The figure for ISLVICGFYGLAEMVDNSQN is 7.51 ± 0.077. In turn, ISNWDVLSCMTQDIGVMTLL showed an amyloid nucleation score of -0.092 ± 0.82. ISSQFGAKTIFPRSVPPQAI yielded an amyloid nucleation score of -0.562 ± 0.35.

Substance ISSWTHVW displayed an amyloid nucleation score of 1.23 ± 0.85.

On to ISVHHFR, for which the amyloid nucleation score turned out to be 0.282 ± 0.57. In turn, ISVKHKFPGANSSVRWDRFW had an amyloid nucleation score of 3.47 ± 0.11. ISVMEFFVISGFTNWVKCFV: the amyloid nucleation score came to 1.06 ± 0.31.

ISVVLWYDRALARCPSPDAP showed an amyloid nucleation score of 0.764 ± 0.49. The figure for ISYVSVS is 0.073 ± 0.41; for ITFLLRSFRVHS it is “inactive”. ITFLRSTIPSVRTRQRLHEL returned an amyloid nucleation score of 0.783 ± 0.4. For ITFTHDNISYKIRTPFAKSL, the amyloid nucleation score came out at 1.55 ± 0.26. The substance ITGFKFS displayed an amyloid nucleation score of 0.698 ± 0.3. Then ITLNWKIAEFSRCTVQLQNL, with 6.324 ± 0.061; and ITLVDVVG, with 0.082 ± 0.34; and ITNCEAEEPDCWPDE, with -0.357 ± 0.35.

The substance ITSYSFIRSNGSVMGSWGSV had an amyloid nucleation score of -0.092 ± 0.65. The substance ITWFVYGPLGWMWGFLRPTA displayed an amyloid nucleation score of 0.019 ± 0.62. The figure for ITYIGWQGSNLYWLFTTTLV is -1.12 ± 1.9; for ITYYVNFDFCQGSLARVWLC it is 5.01 ± 0.059; for IVCFM it is -0.377 ± 0.6.

IVEGVPGTRPHVLAKCSDEC: the amyloid nucleation score turned out to be 0.232 ± 0.3.

Take IVFLKLWEQVGWTVIDNLGV: the amyloid nucleation score is -0.552 ± 1.4. The figure for IVNVAGNV is 0.803 ± 0.45; for IVRNGQATWSWILRGPSWVG it is -1.32 ± 0.48.

The values are drawn from the supplement of paper PMC12042874.
